From paper PMC5773694

T1: Arabidopsis serine/threonine/tyrosine protein kinase (STYK, At2g24360) (Arabidopsis thaliana) (UniProt Q9ZQ31)
T1 sequence: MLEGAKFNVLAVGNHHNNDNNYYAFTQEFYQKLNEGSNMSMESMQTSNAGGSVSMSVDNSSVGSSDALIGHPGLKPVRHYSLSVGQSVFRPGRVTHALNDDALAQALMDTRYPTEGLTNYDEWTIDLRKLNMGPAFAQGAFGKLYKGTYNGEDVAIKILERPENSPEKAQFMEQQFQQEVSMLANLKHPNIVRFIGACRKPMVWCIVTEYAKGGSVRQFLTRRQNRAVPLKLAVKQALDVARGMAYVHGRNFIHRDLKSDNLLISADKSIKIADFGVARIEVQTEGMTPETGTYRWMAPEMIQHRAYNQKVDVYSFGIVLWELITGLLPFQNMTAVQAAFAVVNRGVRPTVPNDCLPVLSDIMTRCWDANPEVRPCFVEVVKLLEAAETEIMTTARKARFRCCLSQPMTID


Biological target: T1, Arabidopsis serine/threonine/tyrosine protein kinase (STYK, At2g24360) (Arabidopsis thaliana)

Km of STYK for CAL4 as substrate, in vitro kinase assay [µM] | Km of STYK for OLE1 as substrate, in vitro kinase assay [µM] | Binder
0.997 |  | Arabidopsis caleosin 4 (CAL4, At1g70670), probable peroxygenase 4 (natural protein) MASSISTGVKFVPEEDNFLQRHVAFFDRNKDGIVYPSETFQGFRAIGCGYLLSAVASVFINIGLSSKTRPGKGFSIWFPIEVKNIHLAKHGSDSGVYDKDGRFVASKFEEIFTKHAHTHRDALTNEELKQLLKANKEPNDRKGWLAGYTEWKVLHYLCKDKNGLLHKDTVRAAYDGSLFEKLEKQRSSKTSKKHP
 | 0.966 | Arabidopsis oleosin 1 (OLE1, At4g25140), oleosin 18.5 kDa (natural protein) MADTARGTHHDIIGRDQYPMMGRDRDQYQMSGRGSDYSKSRQIAKAATAVTAGGSLLVLSSLTLVGTVIALTVATPLLVIFSPILVPALITVALLITGFLSSGGFGIAAITVFSWIYKYATGEHPQGSDKLDSARMKLGSKAQDLKDRAQYYGQQHTGGEHDRDRTRGGQHTT
